Experiments:
HEK cells [1] = assay: Live-dead assay in HEK cells expressing iPAK4 assemblies; type: cell-based; conditions: n=24 fields of view
Description: FIGS. 9A-9C show a live-dead assay to assess the effect of iPAK4 assemblies on cell health. Related to FIG. 1A, FIG. 9A provides images of HEK293T cells expressing CMV::iPAK4 (95%) and CMV::HT-iPAK4 (5%). Many iPAK4 assemblies can be identified in a magnified view. […] Live cells (calcein-AM), dead cells (EthD-1), and HaloTag-iPAK4 stained with JFX608 are shown. FIG. 9C provides a statistical comparison of the dead cell population in iPAK4+ and iPAK4− groups. Each point represents one field of view. Two dishes per condition were investigated. […] The statistical comparison was performed by student's t-test. Lower and upper bounds of the box plot: 25th and 75th percentile; lower and upper whiskers: minimum and maximum; squares: mean; center lines: median.
It was then determined whether the iPAK4 assemblies affect cell survival, as the assemblies often grew longer than the cell diameters (FIG. 6A).

HEK cells [2] = assay: HT dye switch fluorescence profiles of HT-iPAK4 assemblies in HEK cells; type: cell-based; conditions: dishes fixed at 8 h vs 30 h (22 h, one day)
Protocol: To test whether assemblies could encode HT dye timestamps, HEK cells growing HT-iPAK4 assemblies were successively washed with different colors of HT-ligand dyes at Δt=2 h intervals in the sequence JF503, JF669, JFX608, JF503, JF669 (FIG. 2A; see FIGS. 11A-11B for dye structures, photophysical properties, and synthesis of JFX608). The cells were then fixed and imaged with spectrally resolved confocal microscopy. Clear progression of colored bands matching the sequence of dye additions was observed.
To test the limits of how fast dye transitions could be encoded, assemblies were made with seven dye switches at Δt=1 h. At this short interval, peaks were still visible, but their amplitude was suppressed relative to the parts of the assembly with no dye switches, indicating incomplete transitions in dye labeling (FIG. 12E).
A protein ticker tape may stably store its information for extended times. […] The fluorescence profiles for the section of the assemblies that grew concurrently (from t=0 to 8 h) were then compared. […]
Image processing and data analysis: Images of individual assemblies were rotated to align the long axis to the x-axis. Fluorescence profiles were then calculated as the median fluorescence in each spectral channel across the width of the assembly. […] Dye transitions were identified as local maxima in the second derivative of the dye fluorescence as a function of position. […]

cultured neurons [3] = assay: Live-dead assay in cultured neurons expressing iPAK4 assemblies; type: cell-based, rat; conditions: assemblies grown for 6 days
Protocol: Related to FIG. 5. […] Staining of live cells (calcein-AM) and dead cells (EthD-1) is shown. The assay was performed at day 6 after lentiviral infection. Many iPAK4 assemblies are present in FIG. 22A (assemblies share the channel with calcein-AM). Scale bars: 200 μm. FIG. 22C provides a statistical comparison of the live-cell and dead-cell populations, and the dead/live cell ratio in iPAK4+ and iPAK4− groups (N=5 fields of view per group).
To test for effects of iPAK4 assemblies on neuronal survival, iPAK4 (95%) and HT-iPAK4 (5%) were lentivirally expressed in cultured neurons, the assemblies were allowed to grow for 6 days, and then a live-dead assay was performed (FIGS. 22A-22C). […] The iPAK4-expressing neurons had typical soma and neurite structures, similar to those observed in healthy neurons.
Primary neuron culture: Before the plating of primary hippocampal neurons, 14 mm glass-bottom dishes were first incubated with 40 μg/ml poly-D-lysine (PDL) in PBS at room temperature for 1 h and subsequentially with 20 μg/ml laminin (Fisher Scientific; 23-017-015) at 4° C. overnight, followed by thorough wash with PBS. […] Neuronal health was monitored daily from DIV1 to DIV7. […]

cultured neurons [4] = assay: Patch clamp electrophysiology of neurons with iPAK4 assemblies; type: cell-based, rat; conditions: N=11, mean±s.e.m.
Protocol: FIGS. 5A-5H show protein ticker tape recordings of cFos activation in neurons. FIG. 5A provides an image of a cultured neuron expressing lentiviral CMV::iPAK4 (90%) and CMV::eGFP-iPAK4 (10%). Scale bar 50 μm. […] Spikes were evoked by a current injection of 100 pA. […] Error bars show mean±s.e.m. Two-sided Student's t-test was employed for data comparison. […] Scale bar 5 μm.
Whether iPAK4 assemblies affected neuronal electrophysiology was then tested. Neurons infected with lentivirus encoding CMV::iPAK4 (90%) and CMV::eGFP-iPAK4 (10%) grew single straight assemblies (FIG. 5A). Patch clamp recordings were used to compare the electrophysiology of neurons with and without assemblies. Although in many cases the assembly length was several times longer than the soma diameter, neurons with assemblies spiked normally (FIG. 5B), and had membrane resistance, membrane capacitance, resting potential, and rheobase that were statistically indistinguishable from neurons without assemblies (N=11 neurons with assemblies, N=12 without, two-sided Student's t-test, FIG. 5C).
Patch clamp electrophysiology: Whole-cell recordings were performed in extracellular buffer containing (in mM): 125 NaCl, 2.5 KCl, 15 HEPES, 25 D-glucose, 1 MgCl2, and 2 CaCl2 (pH=7.2-7.3 with NaOH). Assembly-forming and non-forming (control) neurons were visualized with a home-built inverted epifluorescence microscope. Experiments were made at 23° C. under ambient atmosphere. The whole-cell internal solution comprised (in mM): 8 NaCl, 130 KMeSO3, 10 HEPES, 5 KCl, 0.5 EGTA, 4 Mg-ATP, and 0.3 Na3-GTP. The pH was adjusted to 7.2-7.3 with KOH and osmolarity was set to 290-295 mOsm/L. Borosilicate glass pipettes were used with a resistance of 3-5 MΩ (1.5 mm OD). Signals were acquired and filtered at 4 kHz with the internal Bessel filter using a Multiclamp 700B (Molecular Devices) and digitized with PCIe-6323 (National Instruments) at 10 kHz. Following the whole-cell configuration, membrane capacitance (Cm), and membrane resistance (Rm) were estimated under voltage-clamp mode. Measurements of resting membrane potential (Vrest), rheobase, and spike rates were made under current-clamp mode. Rheobase was defined as the minimum current step (in 500 ms duration) required for any spike onset. Whole-cell recordings were monitored and analyzed using a custom code written in LabView and Matlab.

B1: iPAK4: fusion of the catalytic domain of the Pak4 kinase and the 38 amino acid iBox domain of its inhibitor Inka1 (SEQ ID NO: 1) (protein)
chain: MDYKDDDDKSGSEAEDWTAALLNRGRSRQPLVLGDNCFADLVHNWMELPEEFPAAPAVPGPPGPRSPQREPQRVSHEQFRAALQLVVDPGDPRSYLDNFIKIGEGSTGIVCIATVRSSGKLVAVKKMDLRKQQRRELLFNEVVIMRDYQHENVVEMYNSYLVGDELWVVMEFLEGGALTDIVTHTRMNEEQIAAVCLAVLQALSVLHAQGVIHRDIKSDSILLTHDGRVKLSDFGFCAQVSKEVPRRKSLVGTPYWMAPELISRLPYGPEVDIWSLGIMVIEMVDGEPPYFNEPPLKAMKMIRDNLPPRLKNLHKVSPSLKGFLDRLLVRDPAQRATAAELLKHPFLAKAGPPASIVPLMRQNRTR
- dead cells (HEK cells [1]): 0.267±0.139%
- monomer exchange in the assembly (HEK cells [2]): negligible
- fraction of dead cells vs dishes not infected with any lentivirus (cultured neurons [3]): no significant difference
- membrane capacitance (cultured neurons [4]): 63±6 pF
- membrane resistance (cultured neurons [4]): 404±73 MΩ
- resting potential (cultured neurons [4]): −61.2±1.2 mV
- rheobase (cultured neurons [4]): 89±12 pA

Reference: patent US20230151437A1, “USE OF PROTEIN ASSEMBLIES TO RECORD CELLULAR EVENTS” (President and Fellows of Harvard College, priority 2021, published 2023)
